The values below come from paper PMC4072508, “Genome-Wide Prediction and Validation of Peptides That Bind Human Prosurvival Bcl-2 Proteins” (PLoS Computational Biology, 2014).

Common to all, as to test: peptide SPOT array, c-Myc-tagged receptor at 1 uM or 100 nM, anti-c-Myc-Cy3
The target of one experiment is Bcl-2, P10415.
Another experiment addresses T1, Bcl-w, Q92843.
T1 chain: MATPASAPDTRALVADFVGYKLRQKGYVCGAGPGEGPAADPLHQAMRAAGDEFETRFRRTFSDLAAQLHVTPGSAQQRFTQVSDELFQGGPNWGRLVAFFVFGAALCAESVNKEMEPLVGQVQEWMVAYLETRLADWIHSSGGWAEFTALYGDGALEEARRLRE

The next experiment deals with Bcl-xL, Q07817.
Another experiment addresses T2, Bfl-1, Q16548.
T2 chain: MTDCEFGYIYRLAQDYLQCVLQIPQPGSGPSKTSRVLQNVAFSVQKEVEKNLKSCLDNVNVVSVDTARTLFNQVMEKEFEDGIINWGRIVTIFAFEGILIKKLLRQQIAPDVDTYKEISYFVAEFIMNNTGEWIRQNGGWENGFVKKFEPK

A further experiment addresses T3, Mcl-1, Q07820.
T3 chain: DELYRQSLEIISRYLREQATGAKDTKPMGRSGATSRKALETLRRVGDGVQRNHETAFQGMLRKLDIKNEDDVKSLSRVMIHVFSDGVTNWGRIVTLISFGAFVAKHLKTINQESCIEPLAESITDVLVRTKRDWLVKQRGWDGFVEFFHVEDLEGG

Bcl-xL, Q07817, sequence (Q07817 1-209): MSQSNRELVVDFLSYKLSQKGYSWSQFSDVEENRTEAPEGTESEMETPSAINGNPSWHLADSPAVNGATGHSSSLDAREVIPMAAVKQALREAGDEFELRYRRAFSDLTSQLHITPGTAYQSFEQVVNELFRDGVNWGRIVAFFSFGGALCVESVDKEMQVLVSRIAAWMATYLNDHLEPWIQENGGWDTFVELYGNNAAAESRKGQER
Bcl-2, P10415, sequence (P10415 1-217): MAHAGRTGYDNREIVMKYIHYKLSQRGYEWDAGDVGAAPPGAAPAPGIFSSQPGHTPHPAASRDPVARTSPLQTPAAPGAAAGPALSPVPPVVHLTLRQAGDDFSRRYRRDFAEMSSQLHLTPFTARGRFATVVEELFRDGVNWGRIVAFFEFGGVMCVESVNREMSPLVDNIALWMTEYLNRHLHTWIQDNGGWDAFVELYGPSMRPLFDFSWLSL

On to SATHDEAVQVLKKTGKEVVLEVKYMK [SNTA1], for which the SPOT signal as a fraction of Bim BH3's signal on the same receptor and array turned out to be 0.02 with Bcl-2, P10415; 0.08 with Bcl-w, Q92843; 0.15 in the experiment with Bcl-xL, Q07817; 0.05 with Bfl-1, Q16548; 0.06 with Mcl-1, Q07820.

For TNISWRACDHLRCIACDFLVVSYDDY [C8orf37], the SPOT signal as a fraction of Bim BH3's signal on the same receptor and array amounted to 0.01 with Bcl-2, P10415; 0.15 in the experiment with Bcl-w, Q92843; 0.08 with Bcl-xL, Q07817; 0.02 with Bfl-1, Q16548; 0.08 with Mcl-1, Q07820.

On to IGQRQTVVRTLNATGEEIIQQSSKTD [DMD], for which the SPOT signal as a fraction of Bim BH3's signal on the same receptor and array with Bcl-2, P10415 was 0.01; with Bcl-w, Q92843 it was 0.02; with Bcl-xL, Q07817, 0.03; with Bfl-1, Q16548 it was 0.03; in the experiment with Mcl-1, Q07820, 0.02.

For the molecule MVLDPSLAEHLSHFGIDMLKMQKTDK [USP5], the SPOT signal as a fraction of Bim BH3's signal on the same receptor and array was found to be 0.02 in the experiment with Bcl-2, P10415; 0.03 with Bcl-w, Q92843; 0.07 with Bcl-xL, Q07817; 0.07 in the experiment with Bfl-1, Q16548; 0.04 with Mcl-1, Q07820.

Take GDRAGGRSWCLRRVGMSAGWLLLEDG [RNF8]: the SPOT signal as a fraction of Bim BH3's signal on the same receptor and array in the experiment with Bcl-2, P10415 was 0.04; with Bcl-w, Q92843 it was 0.07; in the experiment with Bcl-xL, Q07817 it was 0.12; in the experiment with Bfl-1, Q16548 it was 0.13; in the experiment with Mcl-1, Q07820 it was 0.06.

As to AAVGNHVAKLLQSIGQAPESISEKEL [NAE1], the SPOT signal as a fraction of Bim BH3's signal on the same receptor and array in the experiment with Bcl-2, P10415 came to 0.01; in the experiment with Bcl-w, Q92843, 0.02; with Bcl-xL, Q07817 it was 0.03; with Bfl-1, Q16548, 0.02; with Mcl-1, Q07820, 0.02.

In the case of EEIIHKLAMQDRHIGDNIDHRMVRED [PXT1], the SPOT signal as a fraction of Bim BH3's signal on the same receptor and array with Bcl-2, P10415 turned out to be 0.01; in the experiment with Bcl-w, Q92843 it was 0.02; in the experiment with Bcl-xL, Q07817 it was 0.02; in the experiment with Bfl-1, Q16548 it was 0.02; with Mcl-1, Q07820, 0.03.

Turning to DLTDKLVSFYLETYGAELTANVLRDM [PYCARD], the SPOT signal as a fraction of Bim BH3's signal on the same receptor and array was determined as 0.01 in the experiment with Bcl-2, P10415; 0.03 with Bcl-w, Q92843; 0.04 with Bcl-xL, Q07817; 0.02 in the experiment with Bfl-1, Q16548; 0.07 with Mcl-1, Q07820.

With DNHKKKTVKMLEYLGKDVLHGVFNYL [CASP5], the SPOT signal as a fraction of Bim BH3's signal on the same receptor and array was determined as 0.05 with Bcl-2, P10415; 0.21 with Bcl-w, Q92843; 0.28 in the experiment with Bcl-xL, Q07817; 0.19 with Bfl-1, Q16548; 0.11 with Mcl-1, Q07820.

With RDASKILVDALQKFADDMYSLYGGNA [ATP6AP2], the SPOT signal as a fraction of Bim BH3's signal on the same receptor and array with Bcl-2, P10415 came to 0.01; in the experiment with Bcl-w, Q92843, 0.05; in the experiment with Bcl-xL, Q07817, 0.03; in the experiment with Bfl-1, Q16548 it was 0.02; in the experiment with Mcl-1, Q07820, 0.02.

Regarding TIHFNQRGTRLASSGDDLRVIVWDWV [DCAF8L1], the SPOT signal as a fraction of Bim BH3's signal on the same receptor and array with Bcl-2, P10415 is 0.02; with Bcl-w, Q92843, 0.03; with Bcl-xL, Q07817, 0.06; with Bfl-1, Q16548 it was 0.04; with Mcl-1, Q07820 it was 0.04.

As to DISLSNSGFKLVNFGCDYHQYRDKFS [PION], the SPOT signal as a fraction of Bim BH3's signal on the same receptor and array with Bcl-2, P10415 is 0.09; with Bcl-w, Q92843, 0.2; with Bcl-xL, Q07817, 0.39; with Bfl-1, Q16548 it was 0.38; in the experiment with Mcl-1, Q07820, 0.14.

CSTNNPSQAKLRRELDESLQVAERLT [CLU]: the SPOT signal as a fraction of Bim BH3's signal on the same receptor and array came to 0.01 with Bcl-2, P10415; 0.02 in the experiment with Bcl-w, Q92843; 0.03 with Bcl-xL, Q07817; 0.02 with Bfl-1, Q16548; 0.02 with Mcl-1, Q07820.

As to IKKSVTKGEMLKIVGKRFREHFPEIL [MAGEB2], the SPOT signal as a fraction of Bim BH3's signal on the same receptor and array was determined as 0.15 with Bcl-2, P10415; 0.59 with Bcl-w, Q92843; 0.52 with Bcl-xL, Q07817; 0.45 with Bfl-1, Q16548; 0.27 in the experiment with Mcl-1, Q07820.

In the case of KYDPSKYCHNLKKIGEDFSNTIPISS [NOL8], the SPOT signal as a fraction of Bim BH3's signal on the same receptor and array is 0.02 with Bcl-2, P10415; 0.05 with Bcl-w, Q92843; 0.57 with Bcl-xL, Q07817; 0.05 with Bfl-1, Q16548; 0.03 with Mcl-1, Q07820.
